Measurements reported in the supplement of paper PMC10567573.
± gives the standard deviation.

Test: protein stability index of a GFP-peptide fusion (GPS, HEK-293T) (PSI 1-6); higher = more stable
Conditions: c terminus: a fixed tail appended
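Also: 24-mer peptide tiles fused after GFP, lentivirally expressed, FACS-sorted into six equal bins by GFP/DsRed ratio, decoded by Illumina sequencing, PSI is the read-weighted mean bin number.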

TRKINNSFLRDHSYATEADIISTV [PPP2R2B] showed a protein stability index (treatment: DMSO) of 3.32 ± 0.14 and a protein stability index (treatment: MLN4924 1 uM, 8 h) of 3.32 ± 0.12.

LVSWLPRLNAYRGYCSNQLAAKAL [NET1] showed a protein stability index (treatment: DMSO) of 2.5 ± 1 and a protein stability index (treatment: MLN4924 1 uM, 8 h) of 2.1 ± 0.2.

Work on DARQLFVLAGAAEEGFMTAELAGV [GNAI1] yielded a protein stability index (treatment: DMSO) of 2.75 ± 0.37 and a protein stability index (treatment: MLN4924 1 uM, 8 h) of 2.92 ± 0.31.

KRANAAFLIGAYAVIYLKKTPEEA [CDC14A] gave a protein stability index (treatment: DMSO) of 2.38 ± 0.57 and a protein stability index (treatment: MLN4924 1 uM, 8 h) of 2.21 ± 0.22.

LGNFKDDLLNVCMRHVEKMCKADL [TRIM29] showed a protein stability index (treatment: DMSO) of 2.36 ± 0.13 and a protein stability index (treatment: MLN4924 1 uM, 8 h) of 2.47 ± 0.19.

RQIIKLNRRLQLLEEENKERAKRE [MFF] gave a protein stability index (treatment: DMSO) of 3.81 ± 0.36 and a protein stability index (treatment: MLN4924 1 uM, 8 h) of 4.18 ± 0.23.

NQNLSNRPSFNRTPIPWLSSGEPV [MYOZ1] gave a protein stability index (treatment: DMSO) of 3.43 ± 0.38 and a protein stability index (treatment: MLN4924 1 uM, 8 h) of 3.5 ± 0.15.

With RLHLAFKRQVPTEQARAYAEKNCM [RAB40C] the protein stability index (treatment: DMSO) was 2.98 ± 0.15 and the protein stability index (treatment: MLN4924 1 uM, 8 h) was 3.1 ± 0.26.

For RETYPRTPYVRWNYVAKNFAQALG [SOAT2], the protein stability index (treatment: DMSO) was 2.34 ± 0.34 and the protein stability index (treatment: MLN4924 1 uM, 8 h) was 2.17 ± 0.38.

Sequence EELEEDIRKKLKDSGDVSNVIEKV [RHOBTB3] has a protein stability index (treatment: DMSO) of 5.37 ± 0.31 and a protein stability index (treatment: MLN4924 1 uM, 8 h) of 5.5 ± 0.25.

In the case of TLRTCYAANPRPDALMKEQLVEMT [ISL2], the protein stability index (treatment: DMSO) is reported as 3.53 ± 0.22 and the protein stability index (treatment: MLN4924 1 uM, 8 h) is reported as 3.52 ± 0.28.

In the case of NPNFEVAESDYSNNIMKCRSRYDG [LOXL2], the protein stability index (treatment: DMSO) is reported as 4.42 ± 0.24 and the protein stability index (treatment: MLN4924 1 uM, 8 h) is reported as 4.42 ± 0.33.

For HSVFEFLAFKNDIQFWNSRQSLEG [CLPTM1], the protein stability index (treatment: DMSO) was 2.03 ± 0.17 and the protein stability index (treatment: MLN4924 1 uM, 8 h) was 2.13 ± 0.28.

RPRTRKVKSVSPQGNSVDRMAAPR [NCF4] gave a protein stability index (treatment: DMSO) of 4.85 ± 0.15 and a protein stability index (treatment: MLN4924 1 uM, 8 h) of 4.795 ± 0.046.

FHCIETLVTTGANVNETDDWGRTA [ANKRD44] gave a protein stability index (treatment: DMSO) of 2.62 ± 0.32 and a protein stability index (treatment: MLN4924 1 uM, 8 h) of 3.15 ± 0.36.

In the case of LLLENGAGINTHSNEFKESALTLA [ANKRD17], the protein stability index (treatment: DMSO) is reported as 2.32 ± 0.54 and the protein stability index (treatment: MLN4924 1 uM, 8 h) is reported as 2.76 ± 0.6.

Work on RLPTDSHFPYDLHLRSQSLTMQDE [NEUROD6] yielded a protein stability index (treatment: DMSO) of 4.32 ± 0.14 and a protein stability index (treatment: MLN4924 1 uM, 8 h) of 4.34 ± 0.16.

With DTNSIAKAIKARGEVIHCKLRAMK [STX11] the protein stability index (treatment: DMSO) was 2.82 ± 0.29 and the protein stability index (treatment: MLN4924 1 uM, 8 h) was 2.89 ± 0.23.

EETEVLAHEIERLQMEMKEDDVSF [TRIM35] showed a protein stability index (treatment: DMSO) of 5.43 ± 0.2 and a protein stability index (treatment: MLN4924 1 uM, 8 h) of 5.48 ± 0.094.

VLEIEQSMNRVKNISDADVHNAMD [FEM1B] gave a protein stability index (treatment: DMSO) of 4.13 ± 0.14 and a protein stability index (treatment: MLN4924 1 uM, 8 h) of 4.32 ± 0.23.

Work on MYHPRELYPSLGAGYRLGPAQPGA [TBX6] yielded a protein stability index (treatment: DMSO) of 2.78 ± 0.25 and a protein stability index (treatment: MLN4924 1 uM, 8 h) of 2.71 ± 0.11.

With PNAFIGSDVVDWLYHNVEGFTDRR [DVL3] the protein stability index (treatment: DMSO) was 3.13 ± 0.26 and the protein stability index (treatment: MLN4924 1 uM, 8 h) was 3.15 ± 0.32.

GVVVEDGVCIRRCTVLRDARIRSH [GMPPB] showed a protein stability index (treatment: DMSO) of 2.83 ± 0.19 and a protein stability index (treatment: MLN4924 1 uM, 8 h) of 2.75 ± 0.33.

In the case of LRGPRERAPSERSGPAASEHSHRS [DVL3], the protein stability index (treatment: DMSO) is reported as 5.14 ± 0.3 and the protein stability index (treatment: MLN4924 1 uM, 8 h) is reported as 5.34 ± 0.057.

TEQLIEAVNNGDFEAYAKICDPGL [CAMK2B] gave a protein stability index (treatment: DMSO) of 4.19 ± 0.22 and a protein stability index (treatment: MLN4924 1 uM, 8 h) of 4.19 ± 0.23.

In the case of ARLKRSQSFGVASASSIKQILLEW [SMTNL2], the protein stability index (treatment: DMSO) is reported as 2.33 ± 0.28 and the protein stability index (treatment: MLN4924 1 uM, 8 h) is reported as 2.29 ± 0.17.

Sequence NHIGMGVRYNAEKKKVGNYYTTPI [YJU2B] has a protein stability index (treatment: DMSO) of 3.03 ± 0.22 and a protein stability index (treatment: MLN4924 1 uM, 8 h) of 3.27 ± 0.18.

In the case of IGKLLYLEDFFVMSDYRGFGIGSE [SAT1], the protein stability index (treatment: DMSO) is reported as 2.85 ± 0.33 and the protein stability index (treatment: MLN4924 1 uM, 8 h) is reported as 2.9 ± 0.81.

ENYNNLANAVISVSGINHDVTSGD [CPN1] gave a protein stability index (treatment: DMSO) of 4.28 ± 0.2 and a protein stability index (treatment: MLN4924 1 uM, 8 h) of 4.4 ± 0.14.

For VVPDVRSVVTTARMQVLKRQVQSL [SMARCE1], the protein stability index (treatment: DMSO) was 2.5 ± 0.14 and the protein stability index (treatment: MLN4924 1 uM, 8 h) was 2.85 ± 0.21.

Sequence ITNVDLREYLSEEVQAVHKNTTYD [USP39] has a protein stability index (treatment: DMSO) of 4.2 ± 0.24 and a protein stability index (treatment: MLN4924 1 uM, 8 h) of 4.17 ± 0.19.

For KLQKEKEELERRFEDEVKRLGWQQ [MTUS2], the protein stability index (treatment: DMSO) was 4.36 ± 0.35 and the protein stability index (treatment: MLN4924 1 uM, 8 h) was 4.6 ± 0.32.

VSERSFDNVRSLKVESGAWIGYEH [CRYBA1] gave a protein stability index (treatment: DMSO) of 2.91 ± 0.47 and a protein stability index (treatment: MLN4924 1 uM, 8 h) of 3.02 ± 0.33.

In the case of MNMLWSRMLKDNKKNWRRVYKSLL [CLINT1], the protein stability index (treatment: DMSO) is reported as 2.62 ± 0.74 and the protein stability index (treatment: MLN4924 1 uM, 8 h) is reported as 2.58 ± 0.61.

YGYAAQARARERERLAHSRAAAAA [KCNA4] gave a protein stability index (treatment: DMSO) of 3.9 ± 0.26 and a protein stability index (treatment: MLN4924 1 uM, 8 h) of 4.02 ± 0.097.

KKMSCQQFIANLDQLNDGQDFAKD [PSD2] showed a protein stability index (treatment: DMSO) of 4.41 ± 0.22 and a protein stability index (treatment: MLN4924 1 uM, 8 h) of 4.4 ± 0.2.

In the case of RNVRFSDEGGFTCFFRDHSYQEEA [MOG], the protein stability index (treatment: DMSO) is reported as 3.54 ± 0.35 and the protein stability index (treatment: MLN4924 1 uM, 8 h) is reported as 3.75 ± 0.59.

For LKVRSHDPEEAIRHDVIVSIVTAA [PDS5B], the protein stability index (treatment: DMSO) was 2.43 ± 0.19 and the protein stability index (treatment: MLN4924 1 uM, 8 h) was 2.35 ± 0.27.

LTHLSLSRRASESSLSSESSESSD [CDC25B] gave a protein stability index (treatment: DMSO) of 5.38 ± 0.24 and a protein stability index (treatment: MLN4924 1 uM, 8 h) of 5.4 ± 0.12.

In the case of ITTIGYGHAAPGTDAGKAFCMFYA [KCNK9], the protein stability index (treatment: DMSO) is reported as 2.9 ± 0.49 and the protein stability index (treatment: MLN4924 1 uM, 8 h) is reported as 2.8 ± 0.56.

For YLMKTKQFRLKEAFDYIKQRRSMV [DUSP5], the protein stability index (treatment: DMSO) was 2.19 ± 0.38 and the protein stability index (treatment: MLN4924 1 uM, 8 h) was 2.11 ± 0.33.

Sequence LVLPLVPELLSTHPFFDTAEPDMD [INTS4] has a protein stability index (treatment: DMSO) of 2.56 ± 0.11 and a protein stability index (treatment: MLN4924 1 uM, 8 h) of 2.76 ± 0.68.

FLGETKQETLTNISAVNYDFDEEY [DAPK3] showed a protein stability index (treatment: DMSO) of 4.77 ± 0.35 and a protein stability index (treatment: MLN4924 1 uM, 8 h) of 4.84 ± 0.24.

For SLGASPTVAGIVGSSYGILQLFSS [MFSD9], the protein stability index (treatment: DMSO) was 2.08 ± 0.35 and the protein stability index (treatment: MLN4924 1 uM, 8 h) was 2.17 ± 0.47.
